The values below come from patent US20230287125A1 (LEPU BIOPHARMA, published 2023).

The Kd is a measure of binding affinity in units of concentration. Higher therefore signals a looser complex. A word on the koff: it is the first-order rate constant of dissociation. A low value points to slow dissociation. A word on the kon: it is the second-order rate constant of association. A low value points to slower complex formation. The EC50 is the midpoint of the concentration-response curve. High values mean lower potency in that assay, low ones higher potency in that assay.

Test [1] has as its target T1, human PD-L1-his tag protein (human, UniProt Q9NZQ7 19-238).
T1 construct: also called human PD-L1-His protein; recombinant PD-L1 protein; not shown: his tag
Briefly: SPR (Biacore), affinity ranking, PDL1-His.

Test [2] addresses T2, human PD-L1-Fc protein (human, UniProt Q9NZQ7 19-238).
T2 construct: coating antigen of the ELISAs; also called rhPD-L1-Fc; not shown: Fc
Briefly: ELISA, antibody titrated on coated human PD-L1-Fc, OD 450nm; lower left panel. How it is done: (§1) To evaluate antigen binding activity, the humanized antibodies were subjected to ELISA test. Briefly, microtiter plates were coated with human PD-L1-Fc protein at 0.5 μg/ml in PBS, 100 μl/well at 4° C. overnight, then blocked with 200 μl/well of 1% BSA. Three-fold dilutions of humanized antibodies starting from 10 μg/ml were added to each well and incubated for 1 hour at 37° C. The plates were washed with PBS/Tween and then incubated with mouse-anti-human IgG Fab antibody conjugated with Horse Radish Peroxidase (HRP) for 1 hour at 37° C. After washing, the plates were developed with TMB substrate and analyzed by spectrophotometer at OD 450 nm.

Test [3] has as its target T2, human PD-L1-Fc protein. Kind of test: ELISA, antibody titrated on coated human PD-L1-Fc, OD 450nm; lower left panel; the table row is headed 'IC50' on the sheet although the curves rise. How it is done:
as §1

The target in test [4] is T2, human PD-L1-Fc protein. Kind of test: ELISA, antibody titrated on coated human PD-L1-Fc, OD 450nm; lower right panel. The protocol: as §1

T1 sequence (Q9NZQ7 19-238 limits assumed): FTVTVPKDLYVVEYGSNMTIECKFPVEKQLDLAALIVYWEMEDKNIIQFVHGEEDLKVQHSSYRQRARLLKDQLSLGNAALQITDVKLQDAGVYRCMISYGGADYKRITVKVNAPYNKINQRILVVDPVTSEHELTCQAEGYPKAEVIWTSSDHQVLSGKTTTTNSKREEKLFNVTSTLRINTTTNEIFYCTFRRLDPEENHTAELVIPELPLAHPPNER
T2 sequence (Q9NZQ7 19-238 limits assumed): as above

B1: Hu89C10H8-13 (antibody, V domains shown)
VH: EVQLVESGGGLVKPGGSLRLSCAASGFTFSNYWMTWVRQAPGKGLEWVASITNTGSSTFYPDSVKGRFTISRDNAKNSLYLQMNSLRAEDTAVYYCARDTTIAPFDYWGQGTMVTVSS
VL: DIQMTQSPSSLSASVGDRVTITCKASQNLNEYLNWYQQKLGEAPKRLIYKTNTLQAGIPSRFSGSGSGIDYTLTISSLQPEDFATYFCSQYNSGNTFGQGTKLEIK
notes: humanized
In test [1], B1 had a Kd of 0.561 nM, a dissociation rate constant (koff) of 0.000433 s⁻¹ and an association rate constant (kon) of 764000 M⁻¹ s⁻¹. The EC50 in test [2] came to 9.94 ng/mL.

B2: Hu89C10H8-14 (antibody, V domains shown)
VH: EVQLVESGGGLVKPGGSLRLSCAASGFTFSNYWMTWVRQAPGKGLEWVASITNTGSSTFYPDSVKGRFTISRDNAKNSLYLQMNSLRAEDTAVYYCTRDTTIAPFDYWGQGTMVTVSS
VL: DIQMTQSPSSLSASVGDRVTITCKASQNLNEYLNWYQQKLGEAPKRLIYKTNTLQAGIPSRFSGSGSGIDYTLTISSLQPEDFATYFCSQYNSGNTFGQGTKLEIK
notes: humanized
B2: in test [1], binding was put at a Kd of 0.137 nM, the koff amounted to 9.75e-05 s⁻¹ and the kon came to 712000 M⁻¹ s⁻¹. The EC50 in test [2] was 9.83 ng/mL.

B3: Hu89C10H8-16 (antibody, V domains shown)
VH: EVQLVESGGGLVKPGGSLRLSCAASGFTFSNYWMTWIRQAPGKGLEWVASITNTGSSTFYPDSVKGRFTISRDNAKSSLYLQMNSLRAEDTAVYYCTRDTTIAPFDYWGQGTMVTVSS
VL: DIQMTQSPSSLSASVGDRVTITCKASQNLNEYLNWYQQKLGEAPKRLIYKTNTLQAGIPSRFSGSGSGIDYTLTISSLQPEDFATYFCSQYNSGNTFGQGTKLEIK
notes: humanized
For B3, in test [1], the affinity, expressed as Kd, was 0.098 nM; the koff came to 6.54e-05 s⁻¹; the kon was determined as 667000 M⁻¹ s⁻¹. In addition, in test [2], the EC50 was 7.57 ng/mL.

B4: Hu89C10H8-15 (antibody, V domains shown)
VH: EVQLVESGGGLVKPGGSLRLSCAASGFTFSNYWMTWIRQAPGKGLEWVASITNTGSSTFYPDSVKGRFTISRDNAKNSLYLQMNSLRAEDTAVYYCTRDTTIAPFDYWGQGTMVTVSS
VL: DIQMTQSPSSLSASVGDRVTITCKASQNLNEYLNWYQQKLGEAPKRLIYKTNTLQAGIPSRFSGSGSGIDYTLTISSLQPEDFATYFCSQYNSGNTFGQGTKLEIK
notes: humanized
In test [1], B4 came in with a Kd of 0.0918 nM, a koff of 7.17e-05 s⁻¹ and a kon of 781000 M⁻¹ s⁻¹. The response in test [2] was half-maximal at 8.8 ng/mL (EC50).

B5: Hu67F3G7-13 (antibody, V domains shown)
VH: EVQLVQSGAEVKKPGASVKVSCKASGYIFTDFWVSWVRQAPGQGLEWIGEIYPNSGVSRYNEKFKGRVTMTVDKSISTAYMELSRLRSDDTAVYYCTKYFGYTYWFGYWGQGTLVTVSS
VL: DTVLTQSPSSLSASVGDRVTITCRASKSVSTYMHWYQQKPGKQPKLLIYSASHLESGVPSRFSGSGSGTDFTLTISSLQPEDFATYYCQQSNELPVTFGGGTKVEIK
notes: humanized
In turn, B5 returned an EC50 in test [3] of 0.0102 µg/mL. In test [1], this molecule came in with a Kd of 0.0341 nM, an off-rate (koff) of 9.54e-05 s⁻¹ and a kon of 2.8e+06 M⁻¹ s⁻¹.

B6: Hu67F3G7-18 (antibody, V domains shown)
VH: EVQLVQSGAEVKKPGASVKVSCKASGYIFTDFWVSWVRQAPGQGLEWIGEIYPNSGVSRYNEKFKGRVTMTVDKSISTAYMELSRLRSDDTAVYYCTKYFGYTYWFGYWGQGTLVTVSS
VL: DTVLTQSPSLSASVGDRVTITCRASKSVSTYMHWYQQKPGKQPKLLIYSASHLESGVPSRFSGSGSGTDFTLTISSLQPEDFATYYCQQSNELPVTFGGGTKVEIK
notes: humanized
For the molecule B6, the response in test [3] was half-maximal at 0.014 µg/mL (EC50). In test [1], this molecule showed a Kd of 0.0331 nM, a koff of 9.51e-05 s⁻¹ and a kon of 2.88e+06 M⁻¹ s⁻¹.

B7: Hu67F3G7-14 (antibody, V domains shown)
VH: EVQLVQSGAEVKKPGASVKVSCKASGYIFTDFWVSWVRQAPGQGLEWIGEIYPNSGVSRYNEKFKGRVTMTVDKSISTAYMELSRLRSDDTAVYYCARYFGYTYWFGYWGQGTLVTVSS
VL: DTVLTQSPSSLSASVGDRVTITCRASKSVSTYMHWYQQKPGKQPKLLIYSASHLESGVPSRFSGSGSGTDFTLTISSLQPEDFATYYCQQSNELPVTFGGGTKVEIK
notes: humanized
Turning to B7, in test [3], a half-maximal response (EC50) required 0.0144 µg/mL. Further, in test [1], binding was put at a Kd of 0.0519 nM, the koff was determined as 0.000109 s⁻¹ and the on-rate constant (kon) is 2.09e+06 M⁻¹ s⁻¹.

B8: Hu67F3G7-15 (antibody, V domains shown)
VH: EVQLVQSGAEVKKPGASVKVSCKASGYIFTDFWVSWVRQAPGKGLEWIGEIYPNSGVSRYNEKFKGRVTMTVDKSISTAYMELSRLRSDDTAVYYCTKYFGYTYWFGYWGQGTLVTVSS
VL: DTVLTQSPSSLSASVGDRVTITCRASKSVSTYMHWYQQKPGKQPKLLIYSASHLESGVPSRFSGSGSGTDFTLTISSLQPEDFATYYCQQSNELPVTFGGGTKVEIK
notes: humanized
On to B8, for which, in test [3], the response was half-maximal at 0.0111 µg/mL (EC50). In test [1], this molecule had a Kd of 0.0371 nM, a koff of 9.69e-05 s⁻¹ and a kon of 2.61e+06 M⁻¹ s⁻¹.

B9: Hu67F3G7-21 (antibody, V domains shown)
VH: EVQLVQSGAEVKKPGASVKVSCKASGYTFTDFWVSWVRQAPGQGLEWMGEIYPNSGVSRYNEKFKGRVTMTVDKSISTAYMELSRLRSDDTAVYYCARYFGYTYWFGYWGQGTLVTVSS
VL: DIQMTQSPSSLSASVGDRVTITCRASKSVSTYMHWYQQKPGKQPKLLIYSASHLESGVPSRFSGSGSGTDFTLTISSLQPEDFATYYCQQSNELPVTFGGGTKVEIK
notes: humanized
In test [4], B9 had an EC50 of 0.00919 µg/mL. In test [1], this molecule registered a Kd of 0.156 nM, a koff of 8.43e-05 s⁻¹ and a kon of 540000 M⁻¹ s⁻¹.

B10: Hu67F3G7-19 (antibody, V domains shown)
VH: EVQLVQSGAEVKKPGASVKVSCKASGYIFTDFWVSWVRQAPGQGLEWIGEIYPNSGVSRYNEKFKGRVTMTVDKSISTAYMELSRLRSDDTAVYYCARYFGYTYWFGYWGQGTLVTVSS
VL: DTVLTQSPSLSASVGDRVTITCRASKSVSTYMHWYQQKPGKQPKLLIYSASHLESGVPSRFSGSGSGTDFTLTISSLQPEDFATYYCQQSNELPVTFGGGTKVEIK
notes: humanized
B10: the EC50 in test [4] was determined as 0.0132 µg/mL. In test [1], the Kd amounted to 0.0545 nM, the koff was determined as 0.000107 s⁻¹ and the kon is 1.97e+06 M⁻¹ s⁻¹.

B11: Hu67F3G7-17 (antibody, V domains shown)
VH: EVQLVQSGAEVKKPGASVKVSCKASGYTFTDFWVSWVRQAPGQGLEWMGEIYPNSGVSRYNEKFKGRVTMTVDKSISTAYMELSRLRSDDTAVYYCTKYFGYTYWFGYWGQGTLVTVSS
VL: DTVLTQSPSLSASVGDRVTITCRASKSVSTYMHWYQQKPGKQPKLLIYSASHLESGVPSRFSGSGSGTDFTLTISSLQPEDFATYYCQQSNELPVTFGGGTKVEIK
notes: humanized
In test [3], B11 showed an EC50 of 0.0136 µg/mL. In test [1], this molecule returned a Kd of 0.037 nM, a koff of 0.000101 s⁻¹ and an on-rate (kon) of 2.74e+06 M⁻¹ s⁻¹.

B12: Hu67F3G7-16 (antibody, V domains shown)
VH: EVQLVQSGAEVKKPGASVKVSCKASGYTFTDFWVSWVRQAPGQGLEWMGEIYPNSGVSRYNEKFKGRVTMTVDKSISTAYMELSRLRSDDTAVYYCARYFGYTYWFGYWGQGTLVTVSS
VL: DTVLTQSPSLSASVGDRVTITCRASKSVSTYMHWYQQKPGKQPKLLIYSASHLESGVPSRFSGSGSGTDFTLTISSLQPEDFATYYCQQSNELPVTFGGGTKVEIK
notes: humanized
The molecule B12 had an EC50 in test [3] of 0.0114 µg/mL. In addition, in test [1], binding was put at a Kd of 0.0754 nM, the koff turned out to be 0.000111 s⁻¹ and the kon was determined as 1.48e+06 M⁻¹ s⁻¹.
